According to patent US20170052184A1 (published 2017):
Residue numbers refer to the chain shown, from its start. Ends that are not written are not given here.

B1: HCV 208A-110 monoclonal antibody (antibody, V domains shown)
VH: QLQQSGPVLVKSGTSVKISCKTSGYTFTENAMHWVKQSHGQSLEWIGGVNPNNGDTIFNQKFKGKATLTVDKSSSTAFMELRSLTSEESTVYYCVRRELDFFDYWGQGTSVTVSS
VL: DIVLTQSPASLAVSLGQRATISCRASQSVSTSRYSYMHWYQQKPGQPPKLLIKYASNLESGVPARFSGSGSGTDFTLNIHPVAEEDTAAYYCQHSWEFPFTFGSGTKLEIKR
B2: HCV 208A-557 monoclonal antibody (antibody, V domains shown)
VH: QGQMQQSGAELVKPGASVKLSCKTSGFTFSSSYISWLKQKPGQSLEWIAWIYAGTGNTNYNQKFTDKAQLTVDTSSSTAYMQLSSLTTEDSAIYYCAISGTGFTYWGQGTLVTVSA
VL: B1 VL with V3A, K49E, A83G, A89T, E97D
B3: HCV 208A-293 monoclonal antibody (antibody, V domains shown)
VH: EVQLQQSGPELVKPGASVKISCKASGFTFTEYAMHWMKQSHGKSLEWIGGINPTNGDAIYNQKFKDKAKLTVDRSSSTAYMELRSLTSDDSALFYCARRELDYFPSWGQGTTLTVSS
VL: B1 VL with A12I, Y34F, M37V, Y40I, A64V, T76I, A83E, A89T, Y91F
B4: HCV 208A-692 monoclonal antibody (antibody, V domains shown)
VH: B2 VH with V12A, Y52F
VL: EVLMTQSPLSLPVSLGDQASISCRSSQSLEHSNGNTYLEWFLQRPGQPPKLLIYKVSSRFSGVPDRFSGSGSGTDFTLKISRVEAEDLGVYYCFQGSHVPFTFGSGTKLAIKR
B5: HCV 208B-1096 monoclonal antibody (antibody, V domains shown)
VH: QVQLQQSGAGLAKPGASVKMSCKASGYTFTANKMHWAKQRPGQGLEWIGYIDPSSGYTEYNHKIQYKATLTADTSSSTAYMQLSTLTFEDSAVYYCTNFAYWGQGTLVTVSA
VL: DIVMTQTPLTLSVTIGQPASISCKSSQSLLFTNGKTYLNWFLQRPGQSPKRLIYLLSKLDSGVPDRFSGSGSGTDFTLKISRVEAEDLGVYYCLQSTYFPLTFGAGTKLELKR
B6: 208A-207-271 monoclonal antibody (antibody, V domains shown)
VH: QGQLQQPGAEFVKPGASLKLSCRASGYTFTSYWIHWVKQRPGQGLEWIGEIDPSDSYINQNQKFRGKATLTVDKSSSTAYMELSGLTSEDSAVYYCARHYYGVLDSWGQGTTLTVSS
VL: DIVLTQSPATLSVTPGDRVSLSCRASQRIYNYLHWYQQKSHESPRLLTKYASQSISGIPSRFSGSGSGTDFILTINSVETEDFGMYFCQQSNSWPLTFGAGTKLELRR
B7: 208B-395-334 monoclonal antibody (antibody, V domains shown)
VH: B5 VH with A37T, E59Q, Y66D, T85S
VL: B6 VL with T48I
B8: Neo4 monoclonal antibody (antibody, V domains shown)
VH: QIQLKESGPAVIKPSQSLSLTCIVSGFSITSSVYCWQWIRQPPGKGLEWMGRICYDGSVDYSPSITSRGTISRDTSLNKVFFQLSSVTNEDTAMYYCSRENHIDYYDTTYPSFDVWGAGTTVTVSS
VL: DIVLTQSPASLIVSLGQRATISCRASKSVNEYGYTYMHWYQQKPGLPPKLLIYLASNLDSGVPARFSGSGSGTDFTLNIHPVEEEDAATYYCQHSRELPYTFGGGTKLEIKR
notes: also called HCV Neo4
B9: 208B-612-226 monoclonal antibody (antibody, V domains shown)
VH: EVQLQQSGPELVKPGASVKMSCKASGYRFTSYVMHWVRQKPGQGLEWIGYIDPHNDDTKYSEKFRGKATLTSDKSSTTAYMELSSLTSEDSAVYYCVRYSYDRDYSPMDYWGQGTSVTVSS
VL: QIVLTQSPTLMSASPGEKVTMTCSASSTVTYIYWYQQKPGSSPRLWMYDTFNLVSGVPARFSGSRSGTSYFLTISSMEGEDAATYYCQQYSDSPYTFGGGTKLEIKR

What was measured:
[1] = target: T1, HCV Core1-169 recombinant antigen (hepatitis C virus (HCV-1), UniProt P26664 1-169); assay: sandwich EIA, 25 ng/ml core1-169; capture mAb C11-9
T1 sequence: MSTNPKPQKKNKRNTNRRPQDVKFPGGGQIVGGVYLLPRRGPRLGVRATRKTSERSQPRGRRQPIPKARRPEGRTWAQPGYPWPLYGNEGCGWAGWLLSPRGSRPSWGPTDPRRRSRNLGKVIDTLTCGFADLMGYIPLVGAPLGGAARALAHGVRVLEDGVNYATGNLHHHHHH

[2] = target: T1, HCV Core1-169 recombinant antigen; assay: sandwich EIA, 25 ng/ml core1-169; capture mAb 208A-207-271
[3] = target: T1, HCV Core1-169 recombinant antigen; assay: sandwich EIA, 25 ng/ml core1-169; capture mAb 208B-1096
[4] = target: T1, HCV Core1-169 recombinant antigen; assay: sandwich EIA, 25 ng/ml core1-169; capture mAb C11-7
[5] = target: T1, HCV Core1-169 recombinant antigen; assay: sandwich EIA, 25 ng/ml core1-169; capture mAb 208A-110
[6] = target: T1, HCV Core1-169 recombinant antigen; assay: sandwich EIA, 25 ng/ml core1-169; capture mAb 208B-741
[7] = target: T1, HCV Core1-169 recombinant antigen; assay: sandwich EIA, 25 ng/ml core1-169; capture mAb 208A-557
[8] = target: T1, HCV Core1-169 recombinant antigen; assay: sandwich EIA, 25 ng/ml core1-169; capture mAb 208A-692
[9] = target: T1, HCV Core1-169 recombinant antigen; assay: sandwich EIA, 25 ng/ml core1-169; capture NC capture mAb
[10] = target: T1, HCV Core1-169 recombinant antigen; assay: sandwich EIA, 25 ng/ml core1-169; capture mAb 208B-395-334
[11] = target: T1, HCV Core1-169 recombinant antigen; assay: sandwich EIA, 25 ng/ml core1-169; capture mAb 208B-612-226
[12] = target: T1, HCV Core1-169 recombinant antigen; assay: sandwich EIA, 25 ng/ml core1-169; capture mAb 208A-293
[13] = target: T2, C113WT biotin labeled HCV core peptide (Hepatitis C virus, also: biotin label, position not given here); assay: EIA, captured mAb + biotin peptide
T2 peptide: RGSRPSWGPTD

[14] = target: T3, C113T110N biotin labeled HCV core peptide (Hepatitis C virus, also: biotin label, position not given here); assay: EIA, captured mAb + biotin peptide
T3 peptide: RGSRPSWGPND

Row | Binder | OD492 nm [1] | OD492 nm [2] | OD492 nm [3] | OD492 nm [4] | OD492 nm [5] | OD492 nm [6] | OD492 nm [7] | OD492 nm [8] | OD492 nm [9] | OD492 nm [10] | OD492 nm [11] | OD492 nm [12] | binding result [13] | binding result [14]
1 | B1 | 0.13 OD492 | 0.17 OD492 | 0.21 OD492 | 0.18 OD492 | 0.18 OD492 | 0.2 OD492 | 0.17 OD492 | 0.14 OD492 | 0.15 OD492 | 0.22 OD492 | 0.2 OD492 | 0.2 OD492 |  | 
2 | B2 | 0.14 OD492 | 0.18 OD492 | 0.35 OD492 | 0.22 OD492 | 0.44 OD492 | 0.38 OD492 | 0.32 OD492 | 0.13 OD492 | 0.18 OD492 | 0.28 OD492 | 0.25 OD492 | 0.41 OD492 |  | 
3 | B3 | 2.6 OD492 | 0.39 OD492 | 0.41 OD492 | 2.87 OD492 | 0.52 OD492 | 0.5 OD492 | 0.52 OD492 | 0.34 OD492 | 0.37 OD492 | 0.44 OD492 | 0.37 OD492 | 0.49 OD492 |  | 
4 | B4 | 2.66 OD492 | 0.39 OD492 | 0.38 OD492 | 2.92 OD492 | 0.54 OD492 | 0.44 OD492 | 0.53 OD492 | 0.35 OD492 | 0.4 OD492 | 0.44 OD492 | 0.37 OD492 | 0.51 OD492 |  | 
5 | B5 | 0.33 OD492 | 0.18 OD492 | 0.26 OD492 | 1.06 OD492 | 0.19 OD492 | 0.23 OD492 | 0.17 OD492 | 0.15 OD492 | 0.17 OD492 | 0.2 OD492 | 0.24 OD492 | 0.24 OD492 |  | 
6 | B6 | 2.2 OD492 | 0.36 OD492 | 0.33 OD492 | 2.47 OD492 | 0.38 OD492 | 0.3 OD492 | 0.82 OD492 | 0.42 OD492 | 0.37 OD492 | 0.37 OD492 | 0.33 OD492 | 0.42 OD492 |  | 
7 | B7 | 0.32 OD492 | 0.2 OD492 | 0.23 OD492 | 0.89 OD492 | 0.21 OD492 | 0.21 OD492 | 0.21 OD492 | 0.15 OD492 | 0.2 OD492 | 0.23 OD492 | 0.26 OD492 | 0.26 OD492 |  | 
8 | B8 |  |  |  |  |  |  |  |  |  |  |  |  | no binding | no binding
9 | B9 | 0.64 OD492 | 0.24 OD492 | 0.7 OD492 | 1.52 OD492 | 0.26 OD492 | 0.23 OD492 | 0.23 OD492 | 0.18 OD492 | 0.21 OD492 | 0.83 OD492 | 0.23 OD492 | 0.28 OD492 |  | 
